Experimental data reported in patent publication US20140363428A1 (Chugai, published 2014).
Positions count from the first letter of the chain named.

B1: IgG1-F1070 (antibody)
heavy: QVQLQESGPGLVKPSETLSLTCAVSGHSISHDHAWSWVRQPPGEGLEWIGFISYSGITNYNPSLQGRVTISRDNSKNTLYLQMNSLRAEDTAVYYCARSLARTTAMDYWGEGTLVTVSSASTKGPSVFPLAPSSKSTSGGTAALGCLVKDYFPEPVTVSWNSGALTSGVHTFPAVLQSSGLYSLSSVVTVPSSSLGTQTYICNVNHKPSNTKVDKKVEPKSCDKTHTCPPCPAPELLGGPSVFLFPPKPKDTLYISRTPEVTCVVVDVSHEDPEVKFNWYVDGVEVHNAKTKPREEQYNSTYRVVSVLTVLHQDWLNGKEYKCKVSNKALPAPIEKTISKAKGQPREPQVYTLPPSRDELTKNQVSLTCLVKGFYPSDIAVEWESNGQPENNYKTTPPVLDSDGSFFLYSKLTVDKSRWQQGNVFSCSVMHEALHYHVTRKSLSLSP
light: not shown
notes: VH3-IgG1 with Fc substitutions (EU numbering) + L(WT)-CK
B2: IgG1-F1071 (antibody)
heavy: B1 heavy with R440S
light: not shown
notes: as for B1
B3: IgG1-F1104 (antibody)
heavy: B1 heavy with V424E, S426R, R440Q
light: not shown
notes: as for B1
B4: IgG1-F1098 (antibody)
heavy: B1 heavy with S241D, V438Y, R440Q
light: not shown
notes: as for B1
B5: IgG1-F1102 (antibody)
heavy: B1 heavy with T309Q, Q313A, K328D, L330Y, V438Y, R440Q
light: not shown
notes: as for B1
B6: IgG1-F1074 (antibody)
heavy: B1 heavy with S241D, R440Q
light: not shown
notes: as for B1
B7: IgG1-F1082 (antibody)
heavy: B1 heavy with V438Y, R440N
light: not shown
notes: as for B1
B8: IgG1-F1099 (antibody)
heavy: B1 heavy with K328D, L330Y, V438Y, R440Q
light: not shown
notes: as for B1
B9: IgG1-F1103 (antibody)
heavy: B1 heavy with S241D, T309Q, Q313A, K328D, L330Y, V438Y, R440Q
light: not shown
notes: as for B1
B10: IgG1-F1076 (antibody)
heavy: B1 heavy with S241D, K328D, L330Y, R440Q
light: not shown
notes: as for B1
B11: IgG1-F1083 (antibody)
heavy: B1 heavy with V438Y, R440Q, S442N
light: not shown
notes: as for B1
B12: IgG1-F1073 (antibody)
heavy: B1 heavy with R440Q, S442R
light: not shown
notes: as for B1
B13: IgG1-F1101 (antibody)
heavy: B1 heavy with S241D, T309Q, Q313A, V438Y, R440Q
light: not shown
notes: as for B1
B14: IgG1-F1080 (antibody)
heavy: B1 heavy with S426N, V438Y, R440Q
light: not shown
notes: as for B1
B15: IgG1-F1097 (antibody)
heavy: B1 heavy with G387N, P389S, V438Y, R440Q
light: not shown
notes: as for B1
B16: IgG1-F1100 (antibody)
heavy: B1 heavy with S241D, K328D, L330Y, V438Y, R440Q
light: not shown
notes: as for B1
B17: IgG1-F1105 (antibody)
heavy: B1 heavy with V424S, S426R, R440Q
light: not shown
notes: as for B1
B18: IgG1-F1072 (antibody)
heavy: B1 heavy with R440Q, S442E
light: not shown
notes: as for B1
B19: IgG1-F1095 (antibody)
heavy: B1 heavy with S385N, G387S, V438Y, R440Q
light: not shown
notes: as for B1
B20: IgG1-F1077 (antibody)
heavy: B1 heavy with K250N, V438Y, R440Q
light: not shown
notes: as for B1
B21: IgG1-F1079 (antibody)
heavy: B1 heavy with E384N, N386S, V438Y, R440Q
light: not shown
notes: as for B1
B22: IgG1-F1096 (antibody)
heavy: B1 heavy with Q388T, V438Y, R440Q
light: not shown
notes: as for B1

Target: T1, soluble human FcRn (heterodimer of FcRn alpha chain and beta2-microglobulin) (human, UniProt P55899 24-297; P61769 21-119)
T1 construct: Expressed in HEK293H and purified on IgG Sepharose; also called hFcRn
Experiment: SPR Biacore T100, antibody captured via protein L, hFcRn analyte, pH 7.0, 25 C;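 further: KD derived from kinetic ka and kd fits of sensorgrams, CM4 sensor chip, sodium phosphate NaCl Tween20 running buffer, buffer-only injection used as reference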

Kd [nM] | Binder
170 | B1
120 | B2
180 | B3
260 | B4
65 | B5
130 | B6
280 | B7
260 | B8
61 | B9
130 | B10
350 | B11
130 | B12
66 | B13
320 | B14
280 | B15
240 | B16
150 | B17
130 | B18
290 | B19
2000 | B20
340 | B21
270 | B22
